Assay results: patent US20090297524A1 (DOMANTIS, published 2009)
Numbering of substitutions follows the chain as printed.

T1: Recombinant human CD40L (human, UniProt P29965 108-261, limits assumed)
T1 construct: also called CD40 ligand
T1 sequence (looked up): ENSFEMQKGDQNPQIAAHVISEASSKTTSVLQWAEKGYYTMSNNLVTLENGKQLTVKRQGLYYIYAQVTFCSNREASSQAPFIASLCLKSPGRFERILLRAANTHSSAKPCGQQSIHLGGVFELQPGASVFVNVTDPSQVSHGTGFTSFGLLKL

B1: DOM.94 (other)
VH: EVQLLESGGGLVQPGGSLRLSCAASGFTFELYPMSWVRQAPGKGLEWVSTISPTGLLTYYADSVKGRFTISRDNSKNTLYLQMNSLRAEDTAVYYCAKFKRSGKTDDTNFDYWGQGTLVTVSS
notes: VH dAb
B2: DOM.93 (other)
VH: EVQLLESGGGLVQPGGSLRLSCAASGFTFDIYGMTWVRQAPGKGLEWVSSISPLGLVTYYADPVKGRFTISRDNSKNTLYLQMNSLRAEDTAVYYCAKLKEHGDVPFDYWGQGTLVTVSS
notes: VH dAb
B3: DOM.92 (other)
VH: EVQLLESGGGLVQPGGSLRLSCAASGFTFVDYPMGWVRQAPGKGLEWVSTISTGGFSTYYADSVKGRFTISRDNSKNTLYLQMNSLRAEDTAVYYCAKARYYYLSQIKNFDYWGQGTLVTVSS
notes: VH dAb
B4: DOM-36 (other)
VL: DIQMTQSPSSLSASVGDRVTITCRASQDIDHNLEWYQQKPGKAPKLLIYDSSMLQSGVPSRFSGSGSGTDFTLTISSLQPEDFATYYCQQYHSIPVTFGQGTKVEIKR
notes: Vk dAb
B5: DOM-38 (other)
VL: B4 VL with D30G, H31N, K45R, D50H, S51G, M53W, H92D, S93F, I94N, V96T
notes: Vk dAb
B6: DOM.150 (other)
VL: DIQMTQSPSSLSASVGDRVTITCRASQGIGTDLNWYQQKPGKAPKLLIYMGSYLQSGVPSRFSGSGSGTDFTLTISSLQPEDFATYYCQQIYSFPITFGQGTKVEIKR
notes: Vk dAb
B7: DOM.160 (other)
VL: B4 VL with D30E, H31A, N32D, D50H, M53E, S93M, I94S
notes: Vk dAb
B8: DOM.107 (other)
VL: B6 VL with G28A, T31H, D32R, N34R, M50H, G51R, Y53K, I91T, F94S, I96H
notes: Vk dAb
B9: DOM-47 (other)
VL: B6 VL with G28W, T31D, D32S, N34S, M50F, I91Y, Y92L, S93H, F94T, I96S
notes: Vk dAb
B10: DOM.157 (other)
VL: B4 VL with D28N, D30G, H31E, N32D, K42N, D50S, S51A, M53H, H92S, I94Y
notes: Vk dAb
B11: DOM.161 (other)
VL: B4 VL with H31S, N32D, K45M, D50S, M53D, I94L
notes: Vk dAb
B12: DOM.142 (other)
VL: DIQMTQSPSSLSASVGDRVTITCRASQFIGDSLSWYQQKPGKAPKLLIYFSSILQSGVPSRFSGSGSGTDFTLTISSLQPEDFATYYCQQYHTSPTTFGRGTKVKIKR
notes: Vk dAb
B13: DOM.144 (other)
VL: B4 VL with D28M, H31Q, N32D, D50N, S51A, M53W, S93G, I94Y, V96I
notes: Vk dAb
B14: DOM-52 (other)
VL: B6 VL with G28D, T31S, D32A, N34R, M50L, Y53D, I91T, Y92Q, S93Y, I96T
notes: Vk dAb
B15: DOM.104 (other)
VL: DIQMTQSPSSLSASVGDRVTITCRASQAIGHRLRWYQQKPGKAPKLLIYHRSKLQSGVPSRFSGSGSGTDFTLTISSLQPEDFATYYCQQVRFSPYTFGQGTKVEIKR
notes: Vk dAb
B16: DOM.147 (other)
VL: B4 VL with D28E, D30E, H31T, M53H, S93Q, I94N, V96P
notes: Vk dAb
B17: DOM.155 (other)
VL: B4 VL with D30G, H31M, N32D, K39I, A43V, S51A, M53Y, S93K, I94L, V96A
notes: Vk dAb
B18: DOM.109 (other)
VL: B15 VL with V91T, R92Y, F93Y, S94R, Y96L
notes: Vk dAb
B19: DOM.175 (other)
VL: DIQMTQSPSSLSASVGDRVTITCRASQPISGGLRWYQQKPGKAPKLLIYSTSMLQSGVPSRFSGSGSGTDFTLTISSLQPEDFATYYCQQLYSAPYTFGQGTKVEIKR
notes: Vk dAb
B20: DOM.154 (other)
VL: DIQMTQSPSSLSASVGDRVTITCRASQDIEEMLHWYQQKPGKAPKLLIYFGSLLQSGVPSRFSGSRSGTDFTLTISSLQPEDFATYYCQQHHTRPYTFGQGTKVEIKR
notes: Vk dAb
B21: DOM.108 (other)
VL: B15 VL with V91R, R92A, F93V, S94R, Y96F
notes: Vk dAb
B22: DOM.164 (other)
VL: B4 VL with D28S, H31T, N32D, S51G, M53W, H92R, S93W
notes: Vk dAb
B23: DOM-35 (other)
VL: B12 VL with H92M, T93D, S94I, T96I, R100Q, K105E
notes: Vk dAb
B24: DOM-37 (other)
VL: B4 VL with D28Q, D30E, H31T, S51G, M53W, I94L, V96A
notes: Vk dAb
B25: DOM-86 (other)
VL: B4 VL with D30G, H31D, N32A, E34F, D50Y, S65G, Y91R, I94T, V96A
notes: Vk dAb
B26: DOM.101 (other)
VL: B15 VL with R92A, F93L, S94F
notes: Vk dAb
B27: DOM-116 (other)
VL: B6 VL with G28P, T31P, N34L, M50Q, G51T, Y53I, I91Y, Y92W, S93A, I96V
notes: Vk dAb
B28: DOM.162 (other)
VL: B4 VL with D30S, H31D, N32D, D50N, M53F, T69A, I94L
notes: Vk dAb
B29: DOM.105 (other)
VL: B15 VL with V91S, R92Y, F93A, S94R, Y96V
notes: Vk dAb
B30: DOM.163 (other)
VL: B4 VL with D30E, H31G, M53Q, S93H, I94L, V96T
notes: Vk dAb
B31: DOM.103 (other)
VL: B15 VL with F93A, S94V
notes: Vk dAb
B32: DOM.89 (other)
VL: DIQMTQSPASLSASVGDRVTITCRASQDIDPMLRWYQQKPGKAPKLLIYAGSILQSGVPSRFSGSGSGTDFTLTISSLQPEDFATYYCQQTLVTPYTFGQGTKVEIKR
notes: Vk dAb
B33: DOM.156 (other)
VL: B4 VL with D30M, H31D, D50A, S51A, M53W, S93K, I94L
notes: Vk dAb
B34: DOM.159 (other)
VL: B4 VL with T5I, D30N, H31E, N32D, D50N, S51A, E81K, S93T, I94N, V96T
notes: Vk dAb
B35: DOM.106 (other)
VL: B15 VL with A28S, G30N, R34Y, K53R, V91Y, R92K, F93V, S94R, Y96N
notes: Vk dAb
B36: DOM.158 (other)
VL: DIQMTQSPSSLSASVGDRVTITCRASQPIDEDLEWYQQKPGNAPKLLIYSASYLQSGVPSRFSGSGSGTDFTLTISRLQPEDFATYYCQQYHLLPATFGQGTKVEIKR
notes: Vk dAb
B37: DOM.110 (other)
VL: B32 VL with L92S, V93I, T94R
notes: Vk dAb
B38: DOM.91 (other)
VL: B6 VL with G28Q, G30S, T31D, D32E, M50A, G51V, Y53I, I91W, Y92L, I96S
notes: Vk dAb
B39: DOM-49 (other)
VL: B12 VL with I2V, F28W, S51G, I53Y, H92M, T93S, S94A, T96S, R100Q, K105E
notes: Vk dAb
B40: DOM.143 (other)
VL: B4 VL with D28T, D30E, H31T, M53Q, F83L, S93G, I94Y, V96T
notes: Vk dAb
B41: DOM.90 (other)
VL: DIQMTQSPSSLSASVGDRVTITCRASQSISDALFWYQQKPGKAPRLLIYYGSVLQSGVPSRFSGSGSGTDFTLTISSLQPEDFATYYCQQRFQEPVTFGQGTKVEIKR
notes: Vk dAb

Molecular target: T1, Recombinant human CD40L
Experiment: CD40L/CD40-Fc receptor binding assay;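 also: plate assay with coated human CD40-Fc, bound ligand detected via HRP anti-biotin antibody and TMB, OD at 450 nm, lower signal indicates stronger inhibition by dAb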

Binding result, binds:
B1
B2
B3
B4
B5
B6
B7
B8
B9
B10
B11
B12
B13
B14
B15
B16
B17
B18
B19
B20
B21
B22
B23
B24
B25
B26
B27
B28
B29
B30
B31
B32
B33
B34
B35
B36
B37
B38
B39
B40
B41
